Measurements from patent publication US20220031820.

Tested on: T1, recombinant syndecan-1
T1 sequence (P18827 whole entry, species assumed, looked up): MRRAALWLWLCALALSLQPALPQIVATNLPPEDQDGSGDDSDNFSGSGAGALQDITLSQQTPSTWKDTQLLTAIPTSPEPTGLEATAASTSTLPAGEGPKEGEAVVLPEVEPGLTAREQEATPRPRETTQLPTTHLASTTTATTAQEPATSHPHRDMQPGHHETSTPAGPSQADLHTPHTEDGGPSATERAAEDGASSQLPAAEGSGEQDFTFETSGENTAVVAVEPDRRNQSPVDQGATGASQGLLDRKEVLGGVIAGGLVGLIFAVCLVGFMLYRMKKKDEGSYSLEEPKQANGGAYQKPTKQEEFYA

B1: recombinant GzmK (in vitro syndecan-1 cleavage assay) (enzyme, UniProt P49863 27-264, looked up, species assumed)
Granzyme K: IIGGKEVSPHSRPFMASIQYGGHHVCGGVLIDPQWVLTAAHCQYRFTKGQSPTVVLGAHSLSKNEASKQTLEIKKFIPFSRVTSDPQSNDIMLVKLQTAAKLNKHVKMLHIRSKTSLRSGTKCKVTGWGATDPDSLRPSDTLREVTVTVLSRKLCNSQSYYNGDPFITKDMVCAGDAKGQKDSCKGDSGGPLICKGVFHAIVSGGHECGVATKPGIYTLLTKKYQTWIKSNLVPPHTN
in vitro syndecan-1 cleavage assay (coomassie gel); GzmK 500 nM, syndecan-1 0.7 ug: syndecan-1 was cleaved by all three granzymes

B2: recombinant GzmA (enzyme, UniProt P12544 29-262, looked up, species assumed)
Granzyme A: IIGGNEVTPHSRPYMVLLSLDRKTICAGALIAKDWVLTAAHCNLNKRSQVILGAHSITREEPTKQIMLVKKEFPYPCYDPATREGDLKLLQLMEKAKINKYVTILHLPKKGDDVKPGTMCQVAGWGRTHNSASWSDTLREVNITIIDRKVCNDRNHYNFNPVIGMNMVCAGSLRGGRDSCNGDSGSPLLCEGVFRGVTSFGLENKCGDPRGPGVYILLSKKHLNWIIMTIKGAV
in vitro syndecan-1 cleavage assay (coomassie gel); GzmA 500 nM, syndecan-1 0.7 ug: syndecan-1 was cleaved by all three granzymes
